In PMC7755894:

Target: recombinant hCD25 (human IL-2Rα) (human) (UniProt P01589)
Chain of UniProt P01589 (P01589 22-240): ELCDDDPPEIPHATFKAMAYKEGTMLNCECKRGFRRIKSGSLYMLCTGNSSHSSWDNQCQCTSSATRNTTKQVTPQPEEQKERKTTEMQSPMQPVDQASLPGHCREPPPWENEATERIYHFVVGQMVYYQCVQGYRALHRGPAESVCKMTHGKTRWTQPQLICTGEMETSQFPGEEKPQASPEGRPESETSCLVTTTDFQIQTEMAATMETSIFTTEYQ

Chain of NARA1leukin (P60568 whole entry, looked up): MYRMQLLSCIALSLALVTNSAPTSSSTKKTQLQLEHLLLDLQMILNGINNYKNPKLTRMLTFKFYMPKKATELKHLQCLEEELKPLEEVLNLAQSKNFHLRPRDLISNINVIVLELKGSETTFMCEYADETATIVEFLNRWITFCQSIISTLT

Work on “NARA1leukin (from UniProt P60568 97-153; P60568 22-96)” yielded a fold decrease in pSTAT5 in human CD4+ CD25+ Treg cells (PBMCs, 15 min at 37 °C); stimulation by NARA1leukin compared to hIL-2/NARA1 complexes of 30 fold.
